Test [1] deals with Fcε3-4 sub-fragment of IgE-Fc (human). In words: ITC. (Isothermal titration calorimetry measures the heat released or taken up as one component is titrated into another.)
The target in test [2] is aεFab^1–IgE-Fc complex (one aεFab bound to IgE-Fc) (UniProt P01854). In words: SPR. For orientation: In SPR one partner is held on a chip, and binding of the other changes the refractive index at the surface.

B1: anti-ε-chain Fab (aεFab), anti-human IgE-Fc antibody in human IgG1 Fab format (Fab, V domains shown)
VH: QVQLQQSGPGLVKPSQTLSLTCGISGDSVSSNSAAWNWLRQSPSRGLEWLGRTYYRSKWYNDYAVSMKSRITINPDTSRNQFSLQLNSVTPEDTAVYYCARDGEISYDYYYYGMDVWGRGTLVTVSS
VL: QSVLTQPPSASGTPGQRVTISCSGSSSNIGNNGVNWYQQVPGKPPKLLIYYDDLLPSGVSDRFSGSKSGTSASLAISGLQSEDEADYYCEAWDDSLDGVVFGGGTKLTVL
The molecule B1 yielded a Kd2 (second site, sequential two-site fit) in test [1] of 0.98 µM. This molecule showed a Kd in test [2] of 1400 nM.

For orientation: Kd means the equilibrium constant for the complex coming apart. A low value points to tighter binding.

Values taken from publication PMC3977038.
